# Test results taken from article PMC9105384, “Ethyl Gallate Dual-Targeting PTPN6 and PPARγ Shows Anti-Diabetic and Anti-Obese Effects” (International Journal of Molecular Sciences, 2022).
# B1: DUSP15 (Homo sapiens) (protein)
# chain: MTEGVLPGLYLGNFIDAKDLDQLGRNKITHIISIHESPQPLLQDITYLRIPVADTPEVPIKKHFKECINFIHCCRLNGGNCLVHCFAGISRSTTIVTAYVMTVTGLGWRDVLEAIKATRPIANPNPGFRQQLEEFGWASSQKGARHRTSKTSGAQCPPMTSATCLLAARVALLSAALVREATGRTAQRCRLSPRAAAERLLGPPPHVAAGWSPDPKYQICLCFGEEDPGPTQHPKEQLIMADVQVQLRPGSSSCTLSASTERPDGSSTPGNPDGITHLQCSCLHPKRAASSSCTR
# B2: PTPN21 (Homo sapiens) (protein)
# chain: MPLPFGLKLKRTRRYTVSSKSCLVARIQLLNNEFVEFTLSVESTGQESLEAVAQRLELREVTYFSLWYYNKQNQRRWVDLEKPLKKQLDKYALEPTVYFGVVFYVPSVSQLQQEITRYQYYLQLKKDILEGSIPCTLEQAIQLAGLAVQADFGDFDQYESQDFLQKFALFPVGWLQDEKVLEEATQKVALLHQKYRGLTAPDAEMLYMQEVERMDGYGEESYPAKDSQGSDISIGACLEGIFVKHKNGRHPVVFRWHDIANMSHNKSFFALELANKEETIQFQTEDMETAKYIWRLCVARHKFYRLNQCNLQTQTVTVNPIRRRSSSRMSLPKPQPYVMPPPPQLHYNGHYTEPYASSQDNLFVPNQNGYYCHSQTSLDRAQIDLNGRIRNGSVYSAHSTNSLNNPQPYLQPSPMSSNPSITGSDVMRPDYLPSHRHSAVIPPSYRPTPDYETVMKQLNRGLVHAERQSHSLRNLNIGSSYAYSRPAALVYSQPEIREHAQLPSPAAAHCPFSLSYSFHSPSPYPYPAERRPVVGAVSVPELTNAQLQAQDYPSPNIMRTQVYRPPPPYPPPRPANSTPDLSRHLYISSSNPDLITRRVHHSVQTFQEDSLPVAHSLQEVSEPLTAARHAQLHKRNSIEVAGLSHGLEGLRLKERTLSASAAEVAPRAVSVGSQPSVFTERTQREGPEEAEGLRYGHKKSLSDATMLIHSSEEEEDEDFEEESGARAPPARAREPRPGLAQDPPGCPRVLLAGPLHILEPKAHVPDAEKRMMDSSPVRTTAEAQRPWRDGLLMPSMSESDLTTSGRYRARRDSLKKRPVSDLLSGKKNIVEGLPPLGGMKKTRVDAKKIGPLKLAALNGLSLSRVPLPDEGKEVATRATNDERCKILEQRLEQGMVFTEYERILKKRLVDGECSTARLPENAERNRFQDVLPYDDVRVELVPTKENNTGYINASHIKVSVSGIEWDYIATQGPLQNTCQDFWQMVWEQGIAIIAMVTAEEEGGREKSFRYWPRLGSRHNTVTYGRFKITTRFRTDSGCYATTGLKMKHLLTGQERTVWHLQYTDWPEHGCPEDLKGFLSYLEEIQSVRRHTNSTSDPQSPNPPLLVHCSAGVGRTGVVILSEIMIACLEHNEVLDIPRVLDMLRQQRMMLVQTLCQYTFVYRVLIQFLKSSRLI
# B3: PTPN18 (Homo sapiens) (protein)
# chain: MSRSLDSARSFLERLEARGGREGAVLAGEFSDIQACSAAWKADGVCSTVAGSRPENVRKNRYKDVLPYDQTRVILSLLQEEGHSDYINGNFIRGVDGSLAYIATQGPLPHTLLDFWRLVWEFGVKVILMACREIENGRKRCERYWAQEQEPLQTGLFCITLIKEKWLNEDIMLRTLKVTFQKESRSVYQLQYMSWPDRGVPSSPDHMLAMVEEARRLQGSGPEPLCVHCSAGCGRTGVLCTVDYVRQLLLTQMIPPDFSLFDVVLKMRKQRPAAVQTEEQYRFLYHTVAQMFCSTLQNASPHYQNIKENCAPLYDDALFLRTPQALLAIPRPPGGVLRSISVPGSPGHAMADTYAVVQKRGAPAGAGSGTQTGTGTGTGARSAEEAPLYSKVTPRAQRPGAHAEDARGTLPGRVPADQSPAGSGAYEDVAGGAQTGGLGFNLRIGRPKGPRDPPAEWTRV
# B4: DUSP22 (Homo sapiens) (protein)
# chain: MGNGMNKILPGLYIGNFKDARDAEQLSKNKVTHILSVHDSARPMLEGVKYLCIPAADSPSQNLTRHFKESIKFIHECRLRGESCLVHCLAGVSRSVTLVIAYIMTVTDFGWEDALHTVRAGRSCANPNVGFQRQLQEFEKHEVHQYRQWLKEEYGESPLQDAEEAKNILAAPGILKFWAFLRRL
# B5: DUSP18 (Homo sapiens) (protein)
# chain: MTAPSCAFPVQFRQPSVSGLSQITKSLYISNGVAANNKLMLSSNQITMVINVSVEVVNTLYEDIQYMQVPVADSPNSRLCDFFDPIADHIHSVEMKQGRTLLHCAAGVSRSAALCLAYLMKYHAMSLLDAHTWTKSCRPIIRPNSGFWEQLIHYEFQLFGKNTVHMVSSPVGMIPDIYEKEVRLMIPL
# B6: DUSP14 (Homo sapiens) (protein)
# chain: MSSRGHSTLPRTLMAPRMISEGDIGGIAQITSSLFLGRGSVASNRHLLQARGITCIVNATIEIPNFNWPQFEYVKVPLADMPHAPIGLYFDTVADKIHSVSRKHGATLVHCAAGVSRSATLCIAYLMKFHNVCLLEAYNWVKARRPVIRPNVGFWRQLIDYERQLFGKSTVKMVQTPYGIVPDVYEKESRHLMPYWGI
# B7: DUSP3 (Homo sapiens) (protein)
# chain: MSGSFELSVQDLNDLLSDGSGCYSLPSQPCNEVTPRIYVGNASVAQDIPKLQKLGITHVLNAAEGRSFMHVNTNANFYKDSGITYLGIKANDTQEFNLSAYFERAADFIDQALAQKNGRVLVHCREGYSRSPTLVIAYLMMRQKMDVKSALSIVRQNREIGPNDGFLAQLCQLNDRLAKEGKLKP
# B8: DUSP9 (Homo sapiens) (protein)
# chain: MEGLGRSCLWLRRELSPPRPRLLLLDCRSRELYESARIGGALSVALPALLLRRLRRGSLSVRALLPGPPLQPPPPAPVLLYDQGGGRRRRGEAEAEAEEWEAESVLGTLLQKLREEGYLAYYLQGGFSRFQAECPHLCETSLAGRAGSSMAPVPGPVPVVGLGSLCLGSDCSDAESEADRDSMSCGLDSEGATPPPVGLRASFPVQILPNLYLGSARDSANLESLAKLGIRYILNVTPNLPNFFEKNGDFHYKQIPISDHWSQNLSRFFPEAIEFIDEALSQNCGVLVHCLAGVSRSVTVTVAYLMQKLHLSLNDAYDLVKRKKSNISPNFNFMGQLLDFERSLRLEERHSQEQGSGGQASAASNPPSFFTTPTSDGAFELAPT
# B9: PTPN12 (Homo sapiens) (protein)
# chain: MEQVEILRKFIQRVQAMKSPDHNGEDNFARDFMRLRRLSTKYRTEKIYPTATGEKEENVKKNRYKDILPFDHSRVKLTLKTPSQDSDYINANFIKGVYGPKAYVATQGPLANTVIDFWRMIWEYNVVIIVMACREFEMGRKKCERYWPLYGEDPITFAPFKISCEDEQARTDYFIRTLLLEFQNESRRLYQFHYVNWPDHDVPSSFDSILDMISLMRKYQEHEDVPICIHCSAGCGRTGAICAIDYTWNLLKAGKIPEEFNVFNLIQEMRTQRHSAVQTKEQYELVHRAIAQLFEKQLQLYEIHGAQKIADGVNEINTENMVSSIEPEKQDSPPPKPPRTRSCLVEGDAKEEILQPPEPHPVPPILTPSPPSAFPTVTTVWQDNDRYHPKPVLHMVSSEQHSADLNRNYSKSTELPGKNESTIEQIDKKLERNLSFEIKKVPLQEGPKSFDGNTLLNRGHAIKIKSASPCIADKISKPQELSSDLNVGDTSQNSCVDCSVTQSNKVSVTPPEESQNSDTPPRPDRLPLDEKGHVTWSFHGPENAIPIPDLSEGNSSDINYQTRKTVSLTPSPTTQVETPDLVDHDNTSPLFRTPLSFTNPLHSDDSDSDERNSDGAVTQNKTNISTASATVSAATSTESISTRKVLPMSIARHNIAGTTHSGAEKDVDVSEDSPPPLPERTPESFVLASEHNTPVRSEWSELQSQERSEQKKSEGLITSENEKCDHPAGGIHYEMCIECPPTFSDKREQISENPTEATDIGFGNRCGKPKGPRDPPSEWT
# B10: PTPN14 (Homo sapiens) (protein)
# chain: MPFGLKLRRTRRYNVLSKNCFVTRIRLLDSNVIECTLSVESTGQECLEAVAQRLELRETHYFGLWFLSKSQQARWVELEKPLKKHLDKFANEPLLFFGVMFYVPNVSWLQQEATRYQYYLQVKKDVLEGRLRCTLDQVIRLAGLAVQADFGDYNQFDSQDFLREYVLFPMDLALEEAVLEELTQKVAQEHKAHSGILPAEAELMYINEVERLDGFGQEIFPVKDNHGNCVHLGIFFMGIFVRNRIGRQAVIYRWNDMGNITHNKSTILVELINKEETALFHTDDIENAKYISRLFATRHKFYKQNKICTEQSNSPPPIRRQPTWSRSSLPRQQPYILPPVHVQCGEHYSETHTSQDSIFHGNEEALYCNSHNSLDLNYLNGTVTNGSVCSVHSVNSLNCSQSFIQASPVSSNLSIPGSDIMRADYIPSHRHSAIIVPSYRPTPDYETVMRQMKRGILHTDSQSQSLRNLNIINTHAYNQPEDLVYSQPEMRERHPYTVPYGPQGVYSNKLVSPSDQRNPKNNVVPSKPGASAISHTVSTPELANMQLQGSHNYSTAHMLKNYLFRPPPPYPRPRPATSTPDLASHRHKYVSGSSPDLVTRKVQLSVKTFQEDSSPVVHQSLQEVSEPLTATKHHGTVNKRHSLEVMNSMVRGMEAMTLKSLHLPMARRNTLREQGPPEEGSGSHEVPQLPQYHHKKTFSDATMLIHSSESEEEEEEAPESVPQIPMLREKMEYSAQLQAALARIPNKPPPEYPGPRKSVSNGALRQDQASLPPAMARARVLRHGPAKAISMSRTDPPAVNGASLGPSISEPDLTSVKERVKKEPVKERPVSEMFSLEDSIIEREMMIRNLEKQKMAGLEAQKRPLMLAALNGLSVARVSGREENRVDATRVPMDERFRTLKKKLEEGMVFTEYEQIPKKKANGIFSTAALPENAERSRIREVVPYEENRVELIPTKENNTGYINASHIKVVVGGAEWHYIATQGPLPHTCHDFWQMVWEQGVNVIAMVTAEEEGGRTKSHRYWPKLGSKHSSATYGKFKVTTKFRTDSVCYATTGLKVKHLLSGQERTVWHLQYTDWPDHGCPEDVQGFLSYLEEIQSVRRHTNSMLEGTKNRHPPIVVHCSAGVGRTGVLILSELMIYCLEHNEKVEVPMMLRLLREQRMFMIQTIAQYKFVYQVLIQFLQNSRLI
# Substrate: Cc1cc(=O)oc2c(F)c(OP(=O)(O)O)c(F)cc12
# Experiment: purified protein, by the assay type
# Set-up: DiFMUP hydrolysis by purified PTPs, fluorescence Ex355/Em460, initial rates over 10 min; Michaelis-Menten and Lineweaver-Burk Km
# Method: The enzymatic activity of each PTP was evaluated using 6,8-difluoro-4-methylumbelliferyl phosphate (DiFMUP) as the surrogate substrate. To reach within the range of the initial rate (v0) during the measurement for 10 min, the pH and concentration of each PTP were optimized and are listed in Table S3. To determine the Km values, each PTP with optimized concentration was added to the reaction buffer (20 mM Bis-Tris at pH 6.0 or Tris at pH 7.0 and 8.0, 150 mM NaCl, 2.5 mM dithiothreitol (DTT), 0.01% Triton X-100) containing various concentrations of DiFMUP to obtain a final volume of 100 μL in a 96-well plate. Fluorescence intensities were measured once every minute for a complete 10 min duration using a Victor™ X4 Multilabel Plate Reader (Perkin Elmer, Waltham, MA, USA) at excitation/emission = 355 nm/460 nm. The initial rates of the reaction were determined using a previously described procedure for calculating the amount of product formation. To screen a library of 1033 natural products (Chengdu Biopurify Phytochemicals Ltd., Chengdu, China) against 20 PTPs, each PTP with an optimized concentration was added to the reaction buffer with an optimized pH containing DiFMUP (2 × Km for each PTP) after adding each compound (20 μM). […] The IC50 values were estimated using a sigmoid plot in GraphPad Prism 5 software (GraphPad Software Inc., San Diego, CA, USA). The Hill coefficient (nH), the degree of cooperativity, was calculated according to a previously published method. To determine the inhibition constant (Ki) and identify the inhibition mode of EG, various concentrations of EG (2.5, 5, 10, and 20 μM) were assayed with various concentrations of DiFMUP (260, 130, 65, and 32.5 μM). Kinetic parameters were obtained using Dixon plots for Ki and Lineweaver-Burk plots for the inhibition mode.
protein,measurement,value
B1,Km,9.1 µM
B2,Km,46.7 µM
B3,Km,5.5 µM
B4,Km,13.0 µM
B5,Km,29.0 µM
B6,Km,55.0 µM
B7,Km,100.0 µM
B8,Km,35.0 µM
B9,Km,75.8 µM
B10,Km,423.7 µM
